# Test results published in PMC3045209.
# Target: protein A (UniProt P38507)
# Test: SPR
substance,measurement,value
rabbit IgG (antibody),SPR angle increase,2.1 °
